Measured values reported in publication PMC8324831, “A synthetic nanobody targeting RBD protects hamsters from SARS-CoV-2 infection” (Nature Communications, 2021).

What was measured:
[1] = target: SARS-CoV-2 S-RBD for crystallization (residues 330-531, Avi-tag and His-tag removed by 3C protease) (SARS-CoV-2, Wuhan-Hu-1 reference …, UniProt P0DTC2); assay: crystal structure; conditions: both partners purified
[2] = target: SARS-CoV-2 S-RBD with Avi-tag and deca-His tag (residues 330-531) (SARS-CoV-2, UniProt P0DTC2, biotin on the Avi tag (BirA) where immobilised on streptavidin sensors or used in ELISA and FSEC); assay: ELISA; Myc-tagged sybody from lysate captured by anti-Myc antibody on protein A-coated plate; 50 nM biotinylated RBD added; streptavidin-HRP; room temperature, TBST; conditions: one partner purified

B1: sybody SR4 (VHH)
VHH: QVQLVESGGGLVQAGGSLRLSCAASGFPVYSWNMWWYRQAPGKEREWVAAIESHGDSTRYADSVKGRFTISRDNAKNTVYLQMNSLKPEDTAVYYCYVWVGHTYYGQGTQVTVS
binding result [1]: binds
binding result [2]: binds
